± gives the standard error. For some assays here: Fewer inactive variants are shown than the library holds.
B1: glmS ribozyme (parent)
chain: AUAAAAGCGCCAGAACUACAGAAAUGUAGUUGACGAGGAGGAGGUUUAUCGAAUUUUCGGCGGAUGCCUCCAAA

Columns and labels:
Settings in all cases: with glucosamine-6-phosphate
glucosamine-6-phosphate [1] = variants of: B1; test: kcat; higher = faster cleavage; RNA array
Method in brief: (§1)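 A hybridised Cy3 probe tracked barcoded ribozyme variants, transcribed in situ by E. coli RNA polymerase on sequenced MiSeq chips, at 37 °C. The variants received 40 μM to 10 mM glucosamine-6-phosphate in HEPES/KCl/Mg(OAc)2 buffer. kobs came from decay fits and kcat and KM from weighted Michaelis–Menten fits.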

glucosamine-6-phosphate [2] = variants of: B1; test: self-cleavage kobs at 40 uM GlcN6P; higher = faster cleavage; RNA array
Method in brief: as §1

glucosamine-6-phosphate [3] = variants of: B1; test: self-cleavage kobs at 160 uM GlcN6P; higher = faster cleavage; RNA array
Method in brief: as §1

glucosamine-6-phosphate [4] = variants of: B1; test: self-cleavage kobs at 640 uM GlcN6P; higher = faster cleavage; RNA array
Method in brief: as §1

glucosamine-6-phosphate [5] = variants of: B1; test: self-cleavage kobs at 2500 uM GlcN6P; higher = faster cleavage; RNA array
Method in brief: as §1

glucosamine-6-phosphate [6] = variants of: B1; test: self-cleavage kobs at 10000 uM GlcN6P; higher = faster cleavage; RNA array
Method in brief: as §1

glucosamine-6-phosphate [7] = variants of: B1; test: KM; higher = weaker cofactor use; RNA array
Method in brief: as §1

Variant | kcat (glucosamine-6-phosphate [1]) [s⁻¹] | self-cleavage kobs at 40 uM GlcN6P (glucosamine-6-phosphate [2]) [s⁻¹] | self-cleavage kobs at 160 uM GlcN6P (glucosamine-6-phosphate [3]) [s⁻¹] | self-cleavage kobs at 640 uM GlcN6P (glucosamine-6-phosphate [4]) [s⁻¹] | self-cleavage kobs at 2500 uM GlcN6P (glucosamine-6-phosphate [5]) [s⁻¹] | self-cleavage kobs at 10000 uM GlcN6P (glucosamine-6-phosphate [6]) [s⁻¹] | KM (glucosamine-6-phosphate [7]) [µM]
C16G G29U U54A | 0.024 ± 0.011 | 0.000213 ± 4.2e-05 | 0.000446 ± 0.00014 | 0.00332 ± 0.00054 | 0.0157 ± 0.0041 | 0.0148 ± 0.0026 | 
C16A C68U | 9.12e-05 ± 2.9e-06 |  |  | 3.93e-05 ± 7.5e-06 | 6.55e-05 ± 6.5e-06 | 8.53e-05 ± 7.2e-06 | 878 ± 110
C16A U46A | 7.31e-05 ± 2e-06 |  |  |  | 6.28e-05 ± 2e-05 | 6.82e-05 ± 1.6e-05 | 547 ± 78
C16A U46C | 6.68e-05 ± 1.4e-05 | < 1e-05 |  |  | 5.11e-05 ± 1.4e-05 | 5.46e-05 ± 1e-05 | 
G29U A52U | 0.000123 ± 1.2e-05 |  |  |  |  | 8.41e-05 ± 1e-05 | 4620 ± 1400
C16A C71G | 6.32e-05 ± 9.8e-06 |  | 3.88e-05 ± 1.5e-05 | 7.21e-05 ± 1.7e-05 | 9.36e-05 ± 1.5e-05 | 5.48e-05 ± 6.9e-06 | 
C16A | 0.00334 ± 0.00087 | 6.14e-05 ± 1.3e-06 | 0.000152 ± 5e-06 | 0.000602 ± 3.1e-05 | 0.0017 ± 7.8e-05 | 0.00269 ± 8.5e-05 | 2630 ± 840
C16G | 0.0106 ± 0.0035 | 0.000174 ± 3.5e-06 | 0.000423 ± 1.5e-05 | 0.00182 ± 8.5e-05 | 0.01 ± 0.0036 | 0.0085 ± 0.0003 | 2880 ± 1100
C16U | 0.0542 ± 0.005 | 0.000969 ± 1.7e-05 | 0.00308 ± 0.0002 | 0.0121 ± 0.00055 | 0.0272 ± 0.0015 | 0.0458 ± 0.0022 | 2230 ± 230
C16G U56C | 0.000431 ± 6.4e-05 |  |  |  | 0.000276 ± 4.5e-05 | 0.000354 ± 3.8e-05 | 
G29C U54G | 0.000894 ± 0.00025 | 6e-05 ± 1.7e-05 |  | 0.000289 ± 6.5e-05 | 0.00051 ± 0.00013 | 0.000918 ± 0.00014 | 
C16U C61A | 1.08e-05 ± 2.3e-06 |  |  |  |  |  | 
C16G U30G | 0.000352 ± 3e-05 |  |  | 4.35e-05 ± 1.3e-05 | 0.000146 ± 2.8e-05 | 0.000246 ± 3.2e-05 | 4110 ± 700
C16A G62A | < 1e-05 |  | < 1e-05 |  |  |  | 
C16A U31G | 0.000292 ± 2.2e-05 |  | 4.15e-05 ± 1.7e-05 | 9.42e-05 ± 1.8e-05 | 0.000177 ± 5e-05 | 0.000267 ± 4.3e-05 | 1280 ± 200
C16A U31C | 0.000468 ± 0.00021 |  |  | 6.72e-05 ± 1.1e-05 | 0.000139 ± 2.8e-05 | 0.000418 ± 0.00011 | 

Variant | kcat (glucosamine-6-phosphate [1]) [s⁻¹] | self-cleavage kobs at 40 uM GlcN6P (glucosamine-6-phosphate [2]) [s⁻¹] | self-cleavage kobs at 160 uM GlcN6P (glucosamine-6-phosphate [3]) [s⁻¹] | self-cleavage kobs at 640 uM GlcN6P (glucosamine-6-phosphate [4]) [s⁻¹] | self-cleavage kobs at 2500 uM GlcN6P (glucosamine-6-phosphate [5]) [s⁻¹] | self-cleavage kobs at 10000 uM GlcN6P (glucosamine-6-phosphate [6]) [s⁻¹] | KM (glucosamine-6-phosphate [7]) [µM]
C16A A42G | 0.00215 ± 0.00056 | 3.27e-05 ± 1.1e-05 | 0.000111 ± 2.3e-05 | 0.00062 ± 0.00012 | 0.00103 ± 0.0002 | 0.00165 ± 0.00043 | 2550 ± 900
C16A G51A | < 1e-05 |  |  |  |  | < 1e-05 | 632 ± 220
C16U U57G C61A | 1.37e-05 ± 2e-06 |  |  |  |  |  | 
G29C C58U | 5.79e-05 ± 8.3e-06 | < 1e-05 |  |  | 2.68e-05 ± 9.9e-06 | 4.86e-05 ± 8e-06 | 
C16U A33U | 0.000109 ± 1.2e-05 |  |  | 3.18e-05 ± 8.4e-06 | 5.09e-05 ± 6.2e-06 | 8.92e-05 ± 7.1e-06 | 2420 ± 740
G29A G41U | 9.86e-05 ± 5e-06 |  |  | 3.55e-05 ± 1.5e-05 | 7.35e-05 ± 1.6e-05 | 8.74e-05 ± 1.5e-05 | 1050 ± 200
C16U G29U | 0.00871 ± 0.0037 | 0.000315 ± 2.9e-05 | 0.000639 ± 8.5e-05 | 0.00245 ± 0.00028 | 0.00415 ± 0.00061 | 0.0111 ± 0.0014 | 
G29A A53U | 0.00212 ± 0.00065 | 9.5e-05 ± 1.9e-05 | 0.000233 ± 5.5e-05 | 0.000595 ± 9.3e-05 | 0.00129 ± 0.00019 | 0.00276 ± 0.00055 | 
C16U G41C | 0.000304 ± 4.3e-05 |  | 2.95e-05 ± 1.4e-05 | 0.000139 ± 3.6e-05 | 0.000244 ± 3.8e-05 | 0.000246 ± 4.5e-05 | 1030 ± 370
G29C U31C | 0.000387 ± 3.9e-05 |  |  | 5.78e-05 ± 1.8e-05 | 0.000184 ± 3.4e-05 | 0.000284 ± 4.2e-05 | 3280 ± 690
G29A U47A | 0.00354 ± 0.0016 | 0.000101 ± 1.2e-05 | 0.000152 ± 2.6e-05 | 0.000727 ± 0.00012 | 0.00153 ± 0.00024 | 0.00308 ± 0.00042 | 
G29A U47C | 0.000269 ± 1.9e-05 |  |  | 8.17e-05 ± 2.3e-05 | 0.000223 ± 9.2e-05 | 0.000233 ± 3.2e-05 | 1400 ± 310
G29C C71G | 8.64e-05 ± 1.2e-05 |  | 5.06e-05 ± 1.3e-05 | 3.96e-05 ± 1.4e-05 | 8.9e-05 ± 1.2e-05 | 8.49e-05 ± 1e-05 | 
G29C C71A | 0.000154 ± 3.1e-05 |  |  | 0.000104 ± 1.9e-05 | 0.000119 ± 2.7e-05 | 0.000253 ± 7.8e-05 | 
G29A U54G | 0.00345 ± 0.00074 | 5.97e-05 ± 1.1e-05 | 0.000165 ± 2.7e-05 | 0.000767 ± 0.00012 | 0.00138 ± 0.00023 | 0.00293 ± 0.00042 | 2790 ± 830

— the supplement of paper PMC7125110
